# Experimental data taken from patent US9592281B2, “Method for inducing immunity with a peptide fragment from human CAPRIN-1” (Toray Industries, Inc., priority 2008, dated 2017).
# Residues, ends and D or L forms follow the SMILES beside them.
# B1: monoclonal antibody against CAPRIN-1 having the heavy-chain variable region of SEQ ID NO: 78 and the light-chain variable region of SEQ ID NO: 79: mouse monoclonal antibody against human CAPRIN-1 … (antibody, listed as Mus musculus, V domains shown)
# VH: PRASLGVSETLLCTSGFTFTDYYMSWVRQPPGKALEWLGFIRNKANGYTTEYSASVKGRFTISRDNSQSILYLQMNTLRAEDSATYYCARANWAFDYWGQGTTVTVSSK
# VL: SGDRVSLSCRASQSISNYLHWYQQKSHESPRLLIKYASQSISGIPSRFSGSGSGTDFTLSINSVETEDFGMYFCQQSNSWPYTFGGGTKLEIKQ
# notes: mouse monoclonal antibody against human CAPRIN-1 reacting with breast cancer cell surfaces
# B2: SEQ ID NO: 6: recombinant polypeptide having the amino acid sequence shown by SEQ ID NO: 6 (canine CAPRIN-1), expressed in E. coli (protein, listed as Canis familiaris)
# chain: MALSQDIQKTIKKTARREQLMREEAEQKRLKTVLELQYVLDKLGDDEVRTDLKQGLNGVPILSEEELSLLDEFYKLADPERDMSLRLNEQYEHASIHLWDLLEGKEKSVCGTTYKALKEIVERVFQSNYFDSTHNHQNGLCEEEEAASAPTVEDQVAEAEPEPAEEYTEQSEVESTEYVNRQFMAETQFSSGEKEQVDEWTVETVEVVNSLQQQPQAASPSVPEPHSLTPVAQADPLVRRQRVQDLMAQMQGPYNFIQDSMLDFENQTLDPAIVSAQPMNPTQNMDMPQLVCPPVHSESRLAQPNQVPVQPEATQVPLVSSTSEGYTASQPLYQPSHATEQRPQKEPIDQIQATISLNTDQTTASSSLPAASQPQVFQAGTSKPLHSSGINVNAAPFQSMQTVFNMNAPVPPVNEPETLKQQNQYQASYNQSFSSQPHQVEQTEGCRK
# B3: SEQ ID NO: 8: recombinant polypeptide having the amino acid sequence shown by SEQ ID NO: 8 (canine CAPRIN-1), expressed in E. coli (protein, listed as Canis familiaris)
# chain: MPSATSLSGSGSKSSGPPPPSGSSGSEAAAAAGAAGAAGAGAAAPASQHPATGTGAVQTEAMKQILGVIDKKLRNLEKKKGKLDDYQERMNKGERLNQDQLDAVSKYQEVTNNLEFAKELQRSFMALSQDIQKTIKKTARREQLMREEAEQKRLKTVLELQYVLDKLGDDEVRTDLKQGLNGVPILSEEELSLLDEFYKLADPERDMSLRLNEQYEHASIHLWDLLEGKEKSVCGTTYKALKEIVERVFQSNYFDSTHNHQNGLCEEEEAASAPTVEDQVAEAEPEPAEEYTEQSEVESTEYVNRQFMAETQFSSGEKEQVDEWTVETVEVVNSLQQQPQAASPSVPEPHSLTPVAQADPLVRRQRVQDLMAQMQGPYNFIQDSMLDFENQTLDPAIVSAQPMNPTQNMDMPQLVCPPVHSESRLAQPNQVPVQPEATQVPLVSSTSEGYTASQPLYQPSHATEQRPQKEPIDQIQATISLNTDQTTASSSLPAASQPQVFQAGTSKPLHSSGINVNAAPFQSMQTVFNMNAPVPPVNEPETLKQQNQYQASYNQSFSSQPHQVEQTDLQQEQLQTVVGTYHGSQDQPHQVTGNHQQPPQQNTGFPRSSQPYYNSRGVSRGGSRGARGLMNGYRGPANGFRGGYDGYRPSFSNTPNSGYTQSQFSAPRDYSGYQRDGYQQNFKRGSGQSGPRGAPRGRGGPPRPNRGMPQMNTQQVN
# Key:
# [1] = system: U-87MG human glioma cells
# Description: 10^6 cells of U-87MG human glioma cells (purchased from ATCC), which were verified to express the human CAPRIN-1 polypeptide, were collected in a 50-ml centrifuge tube, 100 μCi chromium-51 was added, and incubation was carried out at 37° C. for 2 hours. Thereafter, the cells were washed 3 times with RPMI medium (Gibco) containing 10% fetal bovine serum (hereafter referred to as “FBS,” Gibco) and added to a 96-well V-bottom plate in amounts of 10^3 cells/well. Further, 5×10^4 HLA-A0201+ and peptide epitope-reactive CD8+ T cells stimulated with the peptides suspended in RPMI medium containing 10% FBS were added, and culture was conducted at 37° C. in 5% CO2 for 4 hours. After the culture, the amount of chromium-51 in the culture supernatant released from the disrupted tumor cells was measured to determine the cytotoxic activity of the peptide-stimulated CD8+ T cells.
# (§1) The cytotoxic activity used herein means the cytotoxic activity of the CD8+ T cells against the U-87MG cells or the JTK-LCL cells (i.e., target cells) determined according to the following equation*. Cytotoxic activity (%)=amount of chromium-51 released from U-87MG or JTK-LCL cell upon addition of CD8+ T cell/amount of chromium-51 released from target cell upon addition of 1N hydrochloric acid×100 Equation*
# [2] = system: human breast cancer cell line, MDA-MB-231V; test: Flow cytometry reactivity of monoclonal antibodies with breast cancer cell surface; format: cell-based; conditions: 10^6 MDA-MB-231V cells; control with medium instead of antibody
# Description: Subsequently, monoclonal antibodies having reactivity with the surfaces of the breast cancer cells expressing CAPRIN-1 were selected from among the above monoclonal antibodies. Specifically, 10^6 cells of human breast cancer cell line, MDA-MB-231V, were centrifuged in a 1.5-ml microcentrifuge tube, 100 μl of the hybridoma supernatants prepared above was added thereto, and the resultants were allowed to stand on ice for 1 hour. After the plate was washed with PBS, the FITC-labeled goat anti-mouse IgG antibody (Invitrogen) diluted 500-fold with PBS containing 0.1% fetal bovine serum was added, and the plate was allowed to stand on ice for 1 hour. After the plate was washed with PBS, fluorescence intensity was measured using the FACSCalibur (Becton Dickinson). Separately, as a control, the same procedure was carried out except for adding a medium instead of the antibodies. […] The sequence of the heavy-chain variable region of one of such monoclonal antibodies is shown by SEQ ID NO: 78 and that of the light-chain variable region thereof is shown by SEQ ID NO: 79.
# [3] = system: tumor of cancer-bearing dog (breast cancer); test: Antitumor evaluation of recombinant protein in cancer-bearing dog; format: in vivo; conditions: dog with breast cancer; for tumor size: tumor about 86 mm^3 at administration, 100 μg with Freund's incomplete adjuvant, 3 times to regional lymph node
# Description: A cancer-bearing dog (breast cancer) having a tumor on the epidermis was subjected to evaluation of the antitumor effects of the recombinant protein purified above.
# The recombinant polypeptide having the amino acid sequence shown by SEQ ID NO: 6 purified in the above-described manner (100 μg, 0.5 ml) was mixed with the equivalent amount of the Freund's incomplete adjuvant (Wako Pure Chemical Industries, Ltd.) to prepare a cancer therapeutic agent. The resulting agent was administered 3 times in total to the regional lymph node in the vicinity of the tumor, as an initial-administration, and 3 days and 7 days thereafter.
# Also, 100 μg of canine interleukin 12 was administered together with the agent subcutaneously.
# Further, a mixture of 0.5 ml of the recombinant polypeptide having the amino acid sequence shown by SEQ ID NO: 8 and 0.5 ml of the Freund's incomplete adjuvant was administered to another dog having breast cancer 3 times in total in the same manner as described above. Also, 100 μg of canine interleukin 12 was administered together with the agent subcutaneously.
# [4] = system: canine peripheral blood mononuclear cells; test: ELISpot assay of IFNγ using peripheral blood mononuclear cells of administered dogs; format: cell-based, dog; conditions: 5×10^5 cells/well, restimulated with the administered polypeptide 24 hours, no spots before administration
# Description: 70% ethanol was added to a 96-well plate (MultiScreen-IP, MAIPS4510, Millipore) in amounts of 100 μl/well, the plate was allowed to stand for 5 minutes, ethanol was aspirated off, the plate was washed with sterilized water, 200 mM sodium bicarbonate (pH 8.2) was added in amounts of 300 μl/well, the plate was allowed to stand for 5 minutes, sodium bicarbonate was aspirated off, and the plate was washed. Subsequently, the anti-canine interferon γ monoclonal antibody (clone142529, MAB781, R&D) added to 200 mM sodium bicarbonate was added to the plate in amounts of 0.5 μg/well, incubation was carried out at 37° C. overnight, and the primary antibody was solid-phased. After the primary antibody in the solution was aspirated off, a blocking solution (1% BSA-5% sucrose-200 mM sodium bicarbonate, pH 8.2) was added in amounts of 300 μl/well, and incubation was carried out at 4° C. overnight to block the plate. After the blocking solution was aspirated off, RPMI medium containing 10% fetal bovine serum (Invitrogen) was added in amounts of 300 μl/well, the plate was allowed to stand for 5 minutes, and the medium was aspirated off. Thereafter, canine peripheral blood mononuclear cells suspended in RPMI medium containing 10% fetal bovine serum were added to the plate in amounts of 5×10^5 cells/well, the dog-derived polypeptide or human-derived polypeptide used for administration were added thereto in amounts of 10 μl/well, and culture was conducted at 37° C. in 5% CO2 for 24 hours to produce interferon γ from immunocytes among peripheral blood mononuclear cells. After culture was conducted, the medium was removed, and wells were washed 6 times with a wash (0.1% Tween 20-200 mM sodium bicarbonate, pH 8.2). The rabbit anti-dog polyclonal antibodies diluted 1,000-fold with the blocking solution were added to the plate in amounts of 100 μl/well and then incubated at 4° C. overnight. After the wells were washed 3 times with the wash, the HRP-labeled anti-rabbit antibodies diluted 1,000-fold with the blocking solution were added to the plate in amounts of 100 μl/well, and the reaction was allowed to proceed at 37° C. for 2 hours. After the wells were washed 3 times with the wash, a color was developed with the aid of a Konica immunostain (Konica), and the wells was washed with water to terminate the reaction. After the reaction was terminated, the membrane was dried, and the number of the developed spots was counted using the KS Elispot (Carl Zeiss).
# [5] = 10 days after the administration
# [6] = 30 days after the administration
# Description for HLA-A24+ JTK-LCL cells: Chromium-51 was incorporated into the HLA-A24+ JTK-LCL cells expressing the human CAPRIN-1 polypeptide, HLA-A24+ and peptide epitope-reactive CD8+ T cells were added, culture was conducted, and the amount of chromium-51 in the culture supernatant released from the disrupted cells was measured.
# as §1
molecule,measurement,setting,value
CSCC[C@H](NC(=O)[C@@H](NC(=O)[C@H](CCC(N)=O)NC(=O)[C@H](CS)NC(=O)[C@H](CO)NC(=O)[C@H](Cc1ccc(O)cc1)NC(=O)[C@H](CO)NC(=O)[C@@H](N)CCCNC(=N)N)C(C)C)C(=O)N[C@@H](Cc1c[nH]cn1)C(=O)N[C@@H](CCC(=O)O)C(=O)O [SEQ ID NO: 77] (H-RSYSCQVMHE-OH),cytotoxic activity of peptide-stimulated CD8+ T cells against U-87MG cells,[1],did not show cytotoxic activity
same,cytotoxic activity of peptide-stimulated CD8+ T cells against JTK-LCL cells,HLA-A24+ JTK-LCL cells,did not exhibit cytotoxicity
B1,"reactivity with breast cancer cell surface (fluorescence intensity, FACS)",[2],reacts with the cancer cell surface
B2,tumor size,[3]; 10 days after the initial administration,55 mm^3
same,tumor size,[3]; 20 days after the initial administration,30 mm^3
same,tumor size,[3]; 30 days after the initial administration,20 mm^3
same,number of IFNγ spots detected in peripheral blood mononuclear cells,[4]; [5],13 spots
same,number of IFNγ spots detected in peripheral blood mononuclear cells,[4]; [6],82 spots
B3,"tumor completely regressed, time after the initial administration","[3]; with Freund's incomplete adjuvant, 3 times, plus 100 μg canine interleukin 12 subcutaneously, tumor at administration about 123 mm^3 (SEQ ID NO: 2), about 96 mm^3 (SEQ ID NO: 8)",27 days
same,number of IFNγ spots detected in peripheral blood mononuclear cells,[4]; [5],32 spots
same,number of IFNγ spots detected in peripheral blood mononuclear cells,[4]; [6],117 spots
